# Measurements as given in patent US20130287781A1 (GlaxoSmithKline, published 2013).
# Columns and labels:
# GST-human NOGO-A56 [1] = molecular target: T1, GST-human NOGO-A56 (human); test: SPR (Biacore), NOGO amine-coupled to CM5, antibody flowed over
# T1 construct: Expressed in E. coli BL21 from pGEX-6P1 and purified on glutathione-sepharose; the GST tag is part of the protein in the assays; also called GST-Nogo-A 5+6; GST Nogo-A 5 + 6
# Protocol: (§1) GST-human NOGO-A56 was immobilised to a CM5 chip by primary amine coupling using the Biacore Wizard program designed for targeted immobilisation levels. The CM5 sensor surface was activated by passing a solution of 50 mM N-hydroxy-succinimide (NHS) and 200 mM N-ethyl-N′-dimethylaminopropyl carbonide (EDC). Then GST-human NOGO-A56 in sodium acetate buffer, pH5.0 or pH 4.5, was passed over the chip and immobilised. After immobilisation was complete any still activated esters were blocked by an injection of 1M ethanolamine hydrochloride, pH8.5.
# GST-human NOGO-A56 [2] = molecular target: T1, GST-human NOGO-A56; test: direct ELISA, GST-human NOGO-A56 coated at 1.0 mcg/ml, purified antibody, OD490
# Protocol: (§2) Wells were rinsed once with TBS+0.05% Tween (TBST) then incubated with 2% BSA in TBST to block non-specific binding sites at room temperature for 1 hour. Antibodies were diluted in TBST+2% BSA to 10 μg/ml and ½ dilutions made from this. Antibodies were added to wells in duplicate and incubated at room temperature for 1 hour. […] The wells were washed three times with TBST and then incubated with 100 μl OPD peroxidase substrate (Sigma) per well for 10 minutes. The colour reaction was stopped by the addition of 25 μl concentrated H₂SO₄. Optical density at 490 nm was measured using a plate reader. Background values read from wells with no antibody were subtracted.
# GST-human NOGO-A56 [3] = molecular target: T1, GST-human NOGO-A56; test: as above; remark: listed apart in the source
# Protocol: as §2
# GST-human NOGO-A56 [4] = molecular target: T1, GST-human NOGO-A56; test: SPR (Biacore) off-rate on NOGO chip, panel of H6FL CDR H3 variants with L13FL
# GST-human NOGO-A56 [5] = molecular target: T1, GST-human NOGO-A56; test: SPR (Biacore) off-rate ranking on GST-human NOGO-A56 chip, one experiment
# Protocol: as §1
# The GST-human NOGO-A56 chip was prepared as for kinetic analysis. Cell supernatants where taken directly from transient transfections of CHO-K1 cells. These were passed directly over the sensor surface and the interaction measured. A mock transfected cell supernatant was used for double referencing to remove any artefacts due to the tissue culture media. All runs were referenced against a blanked sensor surface (one that had been activated and blocked as described earlier but had no addition of ligand). Analysis of binding was carried out using the BIAevaluation kinetic analysis software version 4.1.
# GST-human NOGO-A56 [6] = molecular target: T1, GST-human NOGO-A56; test: SPR (Biacore), GST-human NOGO-A56 amine-coupled to CM5, antibody flowed over, 37 C
# GST-human NOGO-A56 [7] = molecular target: T1, GST-human NOGO-A56; test: SPR (Biacore), GST-human NOGO-A56 amine-coupled to CM5, antibody flowed over, 25 C
# GST-human NOGO-A56 [8] = molecular target: T1, GST-human NOGO-A56; test: competition ELISA on coated GST-Nogo-A 5+6; competitor 2A10 pre-mixed, bound 2A10 detected with anti-mouse IgG-HRP
# GST-human NOGO-A56 [9] = molecular target: T1, GST-human NOGO-A56; test: SPR (Biacore T100), antigen amine-coupled to CM5, antibody 0.125-8 nM; mean of six runs in duplicate (SD in brackets)
# Description: In the first approach, the recombinant Nogo-A was coupled to the surface of the chip and anti-Nogo-A antibodies passed over this surface. In the second approach, Protein A was used to capture the antibody onto the surface of the chip over which the recombinant GST-human Nogo-A56 was passed.
# The antigen was bound to the CM5 chip by primary amine coupling. […] The values show the mean and standard deviation (in brackets) of six independent runs carried out in duplicate. Each completed data set was analysed independently prior to the calculation of mean and standard deviation.
# GST-human NOGO-A56 [10] = molecular target: T1, GST-human NOGO-A56; test: SPR (Biacore), GST-human NOGO-A56 amine-coupled to CM5, antibody flowed over, 25 C; remark: listed apart in the source
# GST-human NOGO-A56 [11] = molecular target: T1, GST-human NOGO-A56; test: SPR (Biacore T100), reverse format: antibody captured by Protein A, GST Nogo-A 5+6 0.125-8 nM flowed over; mean (SD in brackets)
# Description: Protein A was immobilised to approximately 4000RUs by primary amine and used to capture 200-300RUs of the sample antibodies. […] The values show the mean and standard deviation (in brackets) of three independent runs in duplicate. Each data set was independently analysed prior to the calculation of the mean and standard deviation.
# GST-human NOGO-A56 [12] = molecular target: T1, GST-human NOGO-A56; test: direct ELISA, GST-Nogo-A 5+6 coated at 1.0 mcg/ml, anti-human IgG-HRP, Abs490
# Protocol: as §2
# GST-human NOGO-A56 [13] = molecular target: T1, GST-human NOGO-A56; test: SPR (Biacore), GST-human NOGO-A56 amine-coupled to CM5, antibody flowed over, 25 C; remark: listed apart in the source
# Protocol: as §1
# The anti-NOGO mAbs were diluted down in HBS-EP (10 mM HEPES, pH 7.4, 150 mM NaCl, 3 mM EDTA, and 0.005% P-20 surfactant) for the BIAcore 3000 or HBS-EP+ (10 mM HEPES, pH 7.4, 150 mM NaCl, 3 mM EDTA, and 0.05% P-20 surfactant) in the case of the T100 and binding studies were carried out at range of defined antibody concentrations. All runs were referenced against a blanked sensor surface (one that had been activated and blocked as described earlier but had no addition of ligand). Analysis of binding was carried out using the BIAevaluation kinetic analysis software version 4.1 for the BIAcore 3000 and T100 kinetic analysis software version 1.0. […] Unless otherwise stated, the BIAcore experiments were performed at 25° C.
# GST-human NOGO-A56 [14] = molecular target: T1, GST-human NOGO-A56; test: reverse format ELISA: antibody captured on anti-human IgG, GST-Nogo-A 5+6 detected with anti-GST-HRP; the x axis is the antibody concentration
# GST-human NOGO-A56 [15] = molecular target: T1, GST-human NOGO-A56; test: direct ELISA, human NOGO-A (GST-human NOGO-A56) coated at 1 ug/ml, Abs490
# [16] = molecular target: T2, native human Nogo-A of IMR32 neuroblastoma cells (intracellular) (human, UniProt Q9NQC3 1-1192); test: flow cytometry on permeabilised, fixed IMR32 cells (intracellular Nogo-A), PE anti-human IgG, MFI
# T2 construct: whole, on cells; Detected inside permeabilised, fixed cells (ER-resident), not on the cell surface; also called intracellular Nogo-A; native Nogo-A
# T2 sequence (looked up): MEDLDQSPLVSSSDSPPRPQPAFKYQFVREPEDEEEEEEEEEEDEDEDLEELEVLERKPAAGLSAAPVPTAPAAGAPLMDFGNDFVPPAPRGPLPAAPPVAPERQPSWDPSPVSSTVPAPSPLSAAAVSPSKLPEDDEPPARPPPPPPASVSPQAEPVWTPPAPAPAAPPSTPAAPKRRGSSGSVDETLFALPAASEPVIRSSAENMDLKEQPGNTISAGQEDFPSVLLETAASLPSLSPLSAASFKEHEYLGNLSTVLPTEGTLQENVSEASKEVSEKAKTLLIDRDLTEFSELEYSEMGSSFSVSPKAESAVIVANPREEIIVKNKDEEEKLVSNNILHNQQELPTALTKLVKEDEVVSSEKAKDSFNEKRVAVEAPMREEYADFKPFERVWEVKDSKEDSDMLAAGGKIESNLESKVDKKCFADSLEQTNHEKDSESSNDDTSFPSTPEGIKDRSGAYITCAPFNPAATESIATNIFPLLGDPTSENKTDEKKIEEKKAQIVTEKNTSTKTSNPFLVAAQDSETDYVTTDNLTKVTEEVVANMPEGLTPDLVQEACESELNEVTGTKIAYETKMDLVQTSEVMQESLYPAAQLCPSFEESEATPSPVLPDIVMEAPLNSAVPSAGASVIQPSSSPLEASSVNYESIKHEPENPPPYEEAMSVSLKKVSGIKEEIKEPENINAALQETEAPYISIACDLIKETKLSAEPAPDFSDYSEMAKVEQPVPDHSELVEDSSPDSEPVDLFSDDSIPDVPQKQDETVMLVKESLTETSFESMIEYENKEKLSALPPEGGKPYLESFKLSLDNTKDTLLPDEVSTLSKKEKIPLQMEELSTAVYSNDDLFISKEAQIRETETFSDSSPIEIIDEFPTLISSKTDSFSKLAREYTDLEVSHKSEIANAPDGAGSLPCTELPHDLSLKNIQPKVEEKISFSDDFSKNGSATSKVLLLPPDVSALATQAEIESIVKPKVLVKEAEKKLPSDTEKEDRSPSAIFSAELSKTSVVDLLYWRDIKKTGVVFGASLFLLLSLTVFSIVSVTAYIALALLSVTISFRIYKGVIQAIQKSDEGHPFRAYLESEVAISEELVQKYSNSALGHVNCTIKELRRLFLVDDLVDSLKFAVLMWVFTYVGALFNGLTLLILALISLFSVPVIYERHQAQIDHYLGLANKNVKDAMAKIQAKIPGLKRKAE
# Protocol: In the second assay, the ability of the humanised antibodies to bind native Nogo-A was assessed using a human neuroblastoma cell line—IMR32. This cell line is characterised by high intracellular/low cell surface levels of Nogo-A protein. In an attempt to increase the binding signal, the assay was set-up to detect intracellular Nogo-A (ER-resident). IMR32 cells were permeabilised and fixed prior to staining with the anti-Nogo-A humanised antibodies. Binding of the antibodies to Nogo-A was detected using an anti-human IgG-PE labelled secondary (Sigma, #P8047).
# T1 sequence (chain, as listed by the source limits assumed): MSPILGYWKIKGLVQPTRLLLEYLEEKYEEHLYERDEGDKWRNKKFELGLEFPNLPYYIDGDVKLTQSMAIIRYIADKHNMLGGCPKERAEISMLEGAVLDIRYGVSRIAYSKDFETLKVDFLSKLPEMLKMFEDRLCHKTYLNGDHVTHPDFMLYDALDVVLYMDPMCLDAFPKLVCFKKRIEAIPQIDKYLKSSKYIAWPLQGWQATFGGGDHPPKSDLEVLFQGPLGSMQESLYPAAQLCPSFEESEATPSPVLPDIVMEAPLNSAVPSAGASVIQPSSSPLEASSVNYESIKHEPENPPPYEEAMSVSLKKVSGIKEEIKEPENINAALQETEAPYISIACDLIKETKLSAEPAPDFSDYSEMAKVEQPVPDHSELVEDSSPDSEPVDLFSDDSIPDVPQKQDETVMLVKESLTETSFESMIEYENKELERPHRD
Binder,EC50 (read off the curve) (GST-human NOGO-A56 [2]) [µg/mL],EC50 (read off the curve) (GST-human NOGO-A56 [3]) [µg/mL],Kd (GST-human NOGO-A56 [6]) [pM],koff (GST-human NOGO-A56 [6]) [s⁻¹],kon (GST-human NOGO-A56 [6]) [M⁻¹ s⁻¹],Kd (GST-human NOGO-A56 [7]) [pM],koff (GST-human NOGO-A56 [7]) [s⁻¹],kon (GST-human NOGO-A56 [7]) [M⁻¹ s⁻¹],IC50 (read off the curve) (GST-human NOGO-A56 [8]) [µg/mL],Kd (GST-human NOGO-A56 [9]) [pM],Kd (GST-human NOGO-A56 [10]) [pM],koff (GST-human NOGO-A56 [10]) [s⁻¹],kon (GST-human NOGO-A56 [10]) [M⁻¹ s⁻¹],Kd (GST-human NOGO-A56 [11]) [pM],EC50 (read off the curve) (GST-human NOGO-A56 [12]) [µg/mL],EC50 (read off the curve) (GST-human NOGO-A56 [14]) [µg/mL],also measured
"H6L13 (H6FL L13FL) (antibody, human IgG1, kappa, V domains shown, Human IgG1 (L235A, G237A, EU Index) / kappa; also called H6L13 with VH CDR3 GQGY) VH: QVQLVQSGAEVKKPGASVKVSCKASGYTFTSYWMHWVRQAPGQGLEWIGNINPSNGGTNYNEKFKSRATMTRDTSTSTAYMELSSLRSEDTAVYYCELGQGYWGQGTLVTVSS VL: DIVMTQSPLSLPVTLGQPASISCRSSKSLLYKDGKTYLNWFQQRPGQSPQLLIYLMSTRASGVPDRFSGGGSGTDFTLKISRVEAEDVGVYYCQQLVEYPLTFGQGTKLEIKR",~0.1,~0.1,–,–,–,–,–,–,–,–,–,–,–,–,–,–,Kd (GST-human NOGO-A56 [1]): 6970 pM; koff (GST-human NOGO-A56 [1]): 0.00722 s⁻¹; kon (GST-human NOGO-A56 [1]): 1.04e+06 M⁻¹ s⁻¹; koff (GST-human NOGO-A56 [4]): 0.0198 s⁻¹; koff (GST-human NOGO-A56 [5]): 0.0138 s⁻¹
"H28L13 (antibody, human IgG1, kappa, V domains shown, IgG1 (L235A, G237A) / kappa; CAMPATH-1H signal (1-19) left out; also called H28FL L13FL) VH: QVQLVQSGAEVKKPGASVKVSCKASGYTFTSYWMHWVRQAPGQGLEWIGNINPSNGGTNYNEKFKSKATMTRDTSTSTAYMELSSLRSEDTAVYYCELMQGYWGQGTLVTVSS VL: DIVMTQSPLSLPVTLGQPASISCRSSKSLLYKDGKTYLNWFQQRPGQSPQLLIYLMSTRASGVPDRFSGGGSGTDFTLKISRVEAEDVGVYYCQQLVEYPLTFGQGTKLEIKR",~0.07,~0.08,1020,0.00759,7.43e+06,454,0.0033,7.26e+06,~5,1110,936,0.00389,4.16e+06,340,~0.03,~0.06,Kd (GST-human NOGO-A56 [13]): 450 pM; koff (GST-human NOGO-A56 [13]): 0.00317 s⁻¹; kon (GST-human NOGO-A56 [13]): 6.97e+06 M⁻¹ s⁻¹
"H27L16 (antibody, human IgG1, kappa, V domains shown, IgG1 (L235A, G237A) / kappa; CAMPATH-1H signal (1-19) left out; also called H27FL L16FL) VH: QVQLVQSGAEVKKPGASVKVSCKASGYTFTSYWMHWVKQRPGQGLEWIGNINPSNGGTNYNEKFKSKATLTVDKSTSTAYMELSSLRSEDTAVYYCELMQGYWGQGTLVTVSS VL: DIVMTQSPLSNPVTLGQPVSISCRSSKSLLYKDGKTYLNWFLQRPGQSPQLLIYLMSTRASGVPDRFSGGGSGTDFTLKISRVEAEDVGVYYCQQLVEYPLTFGQGTKLEIKR",–,~0.06,426,0.00306,7.18e+06,194,0.00121,6.24e+06,~5,560,380,0.0015,3.94e+06,310,~0.04,~0.1,EC50 (read off the curve) (GST-human NOGO-A56 [15]): ~0.06 µg/mL; binding result [16]: binds
